Source: patent US20040110933A1

Columns and labels:
[1] = target: biotinylated CD44Fc (human) (UniProt P16070); assay: phage ELISA on b-CD44Fc, no competitor
[2] = target: biotinylated CD44Fc (human) (UniProt P16070); assay: competition phage ELISA on b-CD44Fc, competitor S5 (450 ng) pre-incubated

B1: BE-A11 (Fab displayed on phage) (Fab, V domains shown)
VH: EVQLLESGGGLVQPGGSLRLSCAASGFTFSKYSMEWVRQAPGKGLEWVSRIYPSGGPTLYADSVKGRFTISRDNSKNTLYLQMNSLRAEDTAVYYCARDSYGMDVWGQGTTVTVSS
VL: QSVLTQPASVSGSPGQSITISCTGTSSDVGGYSYVSWYQQHPGKAPKLMIYEVSNRPSGVSNRFSGSKSGNTASLTISGLQAEDEADYYCNSYTSSSTKMFGGGTRLTVL
- phage ELISA signal (column CD44) [1]: 1.08
- phage ELISA signal (column CD44 + S5) [2]: 0.261
